Data: patent US20140087995A1 (published 2014)
Numbered stars: 1 amine (or outer) side, 2 acyl side, 3 side chain; on linkers, the order of the positions; unused ones are H or OH. Bridge positions count the residues as written; N and C are the ends. Side chains are listed from the residue outwards. Ends that are not written are not given here. * marks the point of attachment. C20 diacid = O=C(O)CCCCCCCCCCCCCCCCCCC(=O)*; γGlu = O=C(O)[C@H](CCC(=O)[*:2])N[*:1]; AEEA = NCCOCCOCC(=O)O

What was measured:
rat calcitonin receptor [1] = target: T1, rat calcitonin receptor (rat, UniProt P32214 25-516); assay: ratio of binding IC50s: rat calcitonin receptor over rat amylin receptor (reference)
T1 construct: whole, on cells; also called rCTR; rat calcitonin (a) receptor
T1 sequence (looked up): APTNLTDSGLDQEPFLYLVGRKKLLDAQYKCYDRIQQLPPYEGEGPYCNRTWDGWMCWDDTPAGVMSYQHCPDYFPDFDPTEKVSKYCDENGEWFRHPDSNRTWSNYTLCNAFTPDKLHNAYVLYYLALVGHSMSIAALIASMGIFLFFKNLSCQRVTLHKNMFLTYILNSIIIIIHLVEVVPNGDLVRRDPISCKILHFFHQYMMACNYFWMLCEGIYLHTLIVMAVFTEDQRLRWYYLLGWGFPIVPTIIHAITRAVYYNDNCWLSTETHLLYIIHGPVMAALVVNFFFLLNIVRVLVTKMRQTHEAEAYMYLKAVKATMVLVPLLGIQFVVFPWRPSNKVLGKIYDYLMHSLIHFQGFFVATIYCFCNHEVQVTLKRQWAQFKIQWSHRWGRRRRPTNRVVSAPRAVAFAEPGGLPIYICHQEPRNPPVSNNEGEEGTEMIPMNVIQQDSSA

[2] = target: T2, human calcitonin receptor (human, UniProt P30988 25-474); assay: ratio of binding IC50s: human calcitonin receptor over human amylin receptor (reference)
T2 construct: whole, on cells; also called hCTR; hCT
T2 sequence (looked up): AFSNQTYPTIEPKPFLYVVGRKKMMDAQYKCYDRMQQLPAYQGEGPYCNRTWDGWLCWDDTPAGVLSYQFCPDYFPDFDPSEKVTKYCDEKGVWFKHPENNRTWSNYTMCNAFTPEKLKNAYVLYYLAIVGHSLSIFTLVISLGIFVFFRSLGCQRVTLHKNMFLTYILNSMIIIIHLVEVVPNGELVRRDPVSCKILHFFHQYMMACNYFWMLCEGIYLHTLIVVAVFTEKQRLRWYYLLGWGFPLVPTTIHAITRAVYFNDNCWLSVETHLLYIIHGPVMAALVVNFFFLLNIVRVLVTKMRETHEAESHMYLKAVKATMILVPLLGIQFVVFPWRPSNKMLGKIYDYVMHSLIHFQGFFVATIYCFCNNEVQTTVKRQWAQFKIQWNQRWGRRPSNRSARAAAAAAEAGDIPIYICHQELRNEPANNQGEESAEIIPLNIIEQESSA
Description: The resulting pellet was resuspended, homogenized and centrifuged (20.000 rpm, 15 min) in a buffer containing 20 mM Na-HEPES and 0.1 mM EDTA (pH 7.4, buffer 2). The resulting pellet was resuspended in buffer 2 and protein concentration was measured (BCA protein Assay, Pierce). The homogenate was kept cold during the whole procedure. The membranes were kept at −80° C. until use. The assay was performed in a 384 well Optiplate (PerkinElmer) in a total volume of 40 ul. Membranes were mixed with SPA beads. Final concentration of membranes 35 ng/μL final and SPA beads was 0.05 mg/well. Test-compounds were dissolved in DMSO and further diluted in assay buffer (50 mM Hepes, pH 7.4, 1 mM CaCl2, 5 mM MgCl₂, 0.1% OA and 0.02% Tween20). […] The final mixture was incubated with shaking at 400 rpm for 120 min at 25° C. prior to centrifugation (1500 rpm, 10 min). Samples were analyzed on TopCounter™ (Packard). The IC₅₀ was calculated using (one site binding competition analysis) GraphPad Prism5 as a measure of receptor affinity.
Membranes were prepared in the following way; the cells were rinsed with PBS and incubated with Versene for approximately 5 min before harvesting. The cells were flushed with PBS and the cell-suspension was centrifuged for 5 min at 1000 rpm. Cells were homogenized (Ultrathurrax) in a buffer containing 20 mM Na-HEPES and 10 mM EDTA (pH 7.4) and centrifuged at 20.000 rpm for 15 min. The resulting pellet was resuspended, homogenized and centrifuged (20.000 rpm, 15 min) in a buffer containing 20 mM Na-HEPES and 0.1 mM EDTA (pH 7.4, buffer 2). The resulting pellet was resuspended in buffer 2 and protein concentration was measured (BCA protein Assay, Pierce). The homogenate was kept cold during the whole procedure. The membranes were kept at −80° C. until use. Assay was performed in a 384 well Optiplate (PerkinElmer) in a total volume of 40 ul. Membranes were mixed with SPA beads.

rat calcitonin receptor [3] = target: T1, rat calcitonin receptor; assay: SPA competition with 125I-calcitonin, membranes of BHK cells with rat calcitonin receptor (Assay VIII)
[4] = target: T3, rat amylin receptor (rat calcitonin receptor + rat RAMP 3) (rat, UniProt P32214 25-516; Q9JJ73 23-147); assay: SPA competition with 125I-rat amylin, membranes of BHK cells with rat calcitonin receptor + rat RAMP3 (Assay VI)
T3 construct: whole, on cells; also called rAmylin-R; rat amylin 3(a) receptor
T3 sequence (looked up) 1: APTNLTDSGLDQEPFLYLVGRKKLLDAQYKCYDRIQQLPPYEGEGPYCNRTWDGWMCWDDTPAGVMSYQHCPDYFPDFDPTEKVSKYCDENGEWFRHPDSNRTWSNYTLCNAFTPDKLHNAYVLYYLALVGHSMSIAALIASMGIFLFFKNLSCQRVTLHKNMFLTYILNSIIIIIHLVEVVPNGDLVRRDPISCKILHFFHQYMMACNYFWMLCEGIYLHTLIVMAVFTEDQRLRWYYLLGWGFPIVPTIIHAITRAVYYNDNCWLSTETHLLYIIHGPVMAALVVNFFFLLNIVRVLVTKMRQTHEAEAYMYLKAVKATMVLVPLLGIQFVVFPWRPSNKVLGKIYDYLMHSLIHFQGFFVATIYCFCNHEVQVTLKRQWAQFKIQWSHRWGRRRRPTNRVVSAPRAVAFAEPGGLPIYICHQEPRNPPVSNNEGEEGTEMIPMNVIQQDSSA
T3 sequence (looked up) 2: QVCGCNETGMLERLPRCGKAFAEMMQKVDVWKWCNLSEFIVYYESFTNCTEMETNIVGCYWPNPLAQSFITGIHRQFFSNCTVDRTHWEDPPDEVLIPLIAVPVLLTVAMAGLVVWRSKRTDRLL

| Binder | Ratio rCT/rAmylin binding (rat calcitonin receptor [1]) | Ratio hCT/hAmylin binding [2] | IC50 (rat calcitonin receptor [3]) [nM] | IC50 [4] [nM] |
| --- | --- | --- | --- | --- |
| K([AEEA-γGlu-C20 diacid])CNTATCATQRLANFLRHSSPNFGAIPSSTPVGSHTY-NH2 (disulfide 2-7; N-terminus assumed; SMILES CC[C@H](C)[C@H](NC(=O)[C@H](C)NC(=O)CNC(=O)[C@H](Cc1ccccc1)NC(=O)[C@H](CC(N)=O)NC(=O)[C@@H]1CCCN1C(=O)[C@H](CO)NC(=O)[C@H](CO)NC(=O)[C@H](Cc1c[nH]cn1)NC(=O)[C@H](CCCNC(=N)N)NC(=O)[C@H](CC(C)C)NC(=O)[C@H](Cc1ccccc1)NC(=O)[C@H](CC(N)=O)NC(=O)[C@H](C)NC(=O)[C@H](CC(C)C)NC(=O)[C@H](CCCNC(=N)N)NC(=O)[C@H](CCC(N)=O)NC(=O)[C@@H](NC(=O)[C@H](C)NC(=O)[C@@H]1CSSC[C@H](NC(=O)[C@@H](N)CCCCNC(=O)COCCOCCNC(=O)CC[C@H](NC(=O)CCCCCCCCCCCCCCCCCCC(=O)O)C(=O)O)C(=O)N[C@@H](CC(N)=O)C(=O)N[C@@H]([C@@H](C)O)C(=O)N[C@@H](C)C(=O)N[C@@H]([C@@H](C)O)C(=O)N1)[C@@H](C)O)C(=O)N1CCC[C@H]1C(=O)N[C@@H](CO)C(=O)N[C@@H](CO)C(=O)N[C@H](C(=O)N1CCC[C@H]1C(=O)N[C@H](C(=O)NCC(=O)N[C@@H](CO)C(=O)N[C@@H](Cc1c[nH]cn1)C(=O)N[C@H](C(=O)N[C@@H](Cc1ccc(O)cc1)C(N)=O)[C@@H](C)O)C(C)C)[C@@H](C)O, synthetic analogue of human amylin; also called compound 57) | 135 | 133 | 24.4 | 0.181 |
| K([AEEA-γGlu-C20 diacid])CNTATCATQRLANFLRHSSPNFGAIPSSTNVGPHTY-NH2 (disulfide 2-7; N-terminus assumed; SMILES CC[C@H](C)[C@H](NC(=O)[C@H](C)NC(=O)CNC(=O)[C@H](Cc1ccccc1)NC(=O)[C@H](CC(N)=O)NC(=O)[C@@H]1CCCN1C(=O)[C@H](CO)NC(=O)[C@H](CO)NC(=O)[C@H](Cc1c[nH]cn1)NC(=O)[C@H](CCCNC(=N)N)NC(=O)[C@H](CC(C)C)NC(=O)[C@H](Cc1ccccc1)NC(=O)[C@H](CC(N)=O)NC(=O)[C@H](C)NC(=O)[C@H](CC(C)C)NC(=O)[C@H](CCCNC(=N)N)NC(=O)[C@H](CCC(N)=O)NC(=O)[C@@H](NC(=O)[C@H](C)NC(=O)[C@@H]1CSSC[C@H](NC(=O)[C@@H](N)CCCCNC(=O)COCCOCCNC(=O)CC[C@H](NC(=O)CCCCCCCCCCCCCCCCCCC(=O)O)C(=O)O)C(=O)N[C@@H](CC(N)=O)C(=O)N[C@@H]([C@@H](C)O)C(=O)N[C@@H](C)C(=O)N[C@@H]([C@@H](C)O)C(=O)N1)[C@@H](C)O)C(=O)N1CCC[C@H]1C(=O)N[C@@H](CO)C(=O)N[C@@H](CO)C(=O)N[C@H](C(=O)N[C@@H](CC(N)=O)C(=O)N[C@H](C(=O)NCC(=O)N1CCC[C@H]1C(=O)N[C@@H](Cc1c[nH]cn1)C(=O)N[C@H](C(=O)N[C@@H](Cc1ccc(O)cc1)C(N)=O)[C@@H](C)O)C(C)C)[C@@H](C)O, synthetic analogue of human amylin; also called compound 58) | 76.6 | 109 | 10.3 | 0.135 |

Stronger by IC50 (rat calcitonin receptor [3]), values ahead:

| Ratio rCT/rAmylin binding (rat calcitonin receptor [1]) | Ratio hCT/hAmylin binding [2] | IC50 (rat calcitonin receptor [3]) [nM] | IC50 [4] [nM] | Binder |
| --- | --- | --- | --- | --- |
| 131 | 42.6 | 5.26 | 0.04 | K([AEEA-γGlu-C20 diacid])CNTATCATQRLANFLRHSSPNFGAIPSPTNVGPNTY-NH2 (disulfide 2-7; N-terminus assumed; SMILES CC[C@H](C)[C@H](NC(=O)[C@H](C)NC(=O)CNC(=O)[C@H](Cc1ccccc1)NC(=O)[C@H](CC(N)=O)NC(=O)[C@@H]1CCCN1C(=O)[C@H](CO)NC(=O)[C@H](CO)NC(=O)[C@H](Cc1c[nH]cn1)NC(=O)[C@H](CCCNC(=N)N)NC(=O)[C@H](CC(C)C)NC(=O)[C@H](Cc1ccccc1)NC(=O)[C@H](CC(N)=O)NC(=O)[C@H](C)NC(=O)[C@H](CC(C)C)NC(=O)[C@H](CCCNC(=N)N)NC(=O)[C@H](CCC(N)=O)NC(=O)[C@@H](NC(=O)[C@H](C)NC(=O)[C@@H]1CSSC[C@H](NC(=O)[C@@H](N)CCCCNC(=O)COCCOCCNC(=O)CC[C@H](NC(=O)CCCCCCCCCCCCCCCCCCC(=O)O)C(=O)O)C(=O)N[C@@H](CC(N)=O)C(=O)N[C@@H]([C@@H](C)O)C(=O)N[C@@H](C)C(=O)N[C@@H]([C@@H](C)O)C(=O)N1)[C@@H](C)O)C(=O)N1CCC[C@H]1C(=O)N[C@@H](CO)C(=O)N1CCC[C@H]1C(=O)N[C@H](C(=O)N[C@@H](CC(N)=O)C(=O)N[C@H](C(=O)NCC(=O)N1CCC[C@H]1C(=O)N[C@@H](CC(N)=O)C(=O)N[C@H](C(=O)N[C@@H](Cc1ccc(O)cc1)C(N)=O)[C@@H](C)O)C(C)C)[C@@H](C)O, synthetic analogue of human amylin; also called compound 56) |
| 81.7 | 36 | 5.63 | 0.069 | K([AEEA-γGlu-C20 diacid])CNTATCATQRLANFLRHSSPNFGAIPSSTNVGPNTY-NH2 (disulfide 2-7; N-terminus assumed; SMILES CC[C@H](C)[C@H](NC(=O)[C@H](C)NC(=O)CNC(=O)[C@H](Cc1ccccc1)NC(=O)[C@H](CC(N)=O)NC(=O)[C@@H]1CCCN1C(=O)[C@H](CO)NC(=O)[C@H](CO)NC(=O)[C@H](Cc1c[nH]cn1)NC(=O)[C@H](CCCNC(=N)N)NC(=O)[C@H](CC(C)C)NC(=O)[C@H](Cc1ccccc1)NC(=O)[C@H](CC(N)=O)NC(=O)[C@H](C)NC(=O)[C@H](CC(C)C)NC(=O)[C@H](CCCNC(=N)N)NC(=O)[C@H](CCC(N)=O)NC(=O)[C@@H](NC(=O)[C@H](C)NC(=O)[C@@H]1CSSC[C@H](NC(=O)[C@@H](N)CCCCNC(=O)COCCOCCNC(=O)CC[C@H](NC(=O)CCCCCCCCCCCCCCCCCCC(=O)O)C(=O)O)C(=O)N[C@@H](CC(N)=O)C(=O)N[C@@H]([C@@H](C)O)C(=O)N[C@@H](C)C(=O)N[C@@H]([C@@H](C)O)C(=O)N1)[C@@H](C)O)C(=O)N1CCC[C@H]1C(=O)N[C@@H](CO)C(=O)N[C@@H](CO)C(=O)N[C@H](C(=O)N[C@@H](CC(N)=O)C(=O)N[C@H](C(=O)NCC(=O)N1CCC[C@H]1C(=O)N[C@@H](CC(N)=O)C(=O)N[C@H](C(=O)N[C@@H](Cc1ccc(O)cc1)C(N)=O)[C@@H](C)O)C(C)C)[C@@H](C)O, synthetic analogue of human amylin; also called compound 50) |
